We go through 14 molecules from patent US20240294650A1 (Alector, published 2024).

For experiment [1], the target named is T1, endogenous murine MerTK on bone marrow-derived macrophages (mouse, UniProt Q60805 19-994).
T1 construct: whole, on cells; MFI on MerTK KO BMDM subtracted; also called BMDM WT-KO
T1 sequence (looked up): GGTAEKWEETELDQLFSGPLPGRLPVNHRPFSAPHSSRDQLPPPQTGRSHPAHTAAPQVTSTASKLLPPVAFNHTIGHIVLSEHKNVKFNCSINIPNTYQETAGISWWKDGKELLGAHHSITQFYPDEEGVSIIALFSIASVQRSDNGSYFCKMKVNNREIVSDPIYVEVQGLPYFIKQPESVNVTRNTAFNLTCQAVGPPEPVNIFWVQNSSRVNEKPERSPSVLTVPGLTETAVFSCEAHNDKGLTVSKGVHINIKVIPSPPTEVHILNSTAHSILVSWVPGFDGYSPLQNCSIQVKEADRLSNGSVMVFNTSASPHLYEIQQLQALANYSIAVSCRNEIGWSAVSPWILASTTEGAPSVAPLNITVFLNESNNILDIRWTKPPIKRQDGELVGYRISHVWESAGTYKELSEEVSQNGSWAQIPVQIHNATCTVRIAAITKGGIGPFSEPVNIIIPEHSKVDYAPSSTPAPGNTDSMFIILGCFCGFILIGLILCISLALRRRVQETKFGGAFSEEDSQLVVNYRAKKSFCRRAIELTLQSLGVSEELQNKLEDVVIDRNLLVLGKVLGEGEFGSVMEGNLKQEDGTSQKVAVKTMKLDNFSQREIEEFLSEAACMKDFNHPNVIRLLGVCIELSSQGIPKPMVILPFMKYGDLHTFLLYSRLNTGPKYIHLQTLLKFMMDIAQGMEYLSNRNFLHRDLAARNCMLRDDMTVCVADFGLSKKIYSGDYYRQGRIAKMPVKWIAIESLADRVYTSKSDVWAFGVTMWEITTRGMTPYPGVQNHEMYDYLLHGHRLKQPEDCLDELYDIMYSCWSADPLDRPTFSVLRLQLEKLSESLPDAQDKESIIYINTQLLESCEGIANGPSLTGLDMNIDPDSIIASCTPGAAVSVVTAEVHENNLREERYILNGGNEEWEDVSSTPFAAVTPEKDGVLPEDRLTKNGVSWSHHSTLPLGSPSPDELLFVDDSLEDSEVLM
The experiment in a line: FACS, mouse BMDM, WT minus MerTK KO. Summed up:
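Bone marrow cells from MerTK WT and KO mice differentiated into macrophages with 50 ng/ml M-CSF for seven days. Antibodies at 10 μg/ml bound 60 min on ice, then PE anti-human IgG with Fc block 30 min on ice. Flow cytometry read-out as MFI, WT signal minus KO.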
On the technique in general: Flow cytometry measures light scatter and fluorescence of single cells or particles in a stream.

The target in experiment [2] is T2, Recombinant human MerTK-human Fc Chimera protein (human, UniProt Q12866 26-499, limits assumed).
T2 construct: bought construct; also called MerTK-Fc (R&D systems, Cat #391-MR-100)
T2 sequence: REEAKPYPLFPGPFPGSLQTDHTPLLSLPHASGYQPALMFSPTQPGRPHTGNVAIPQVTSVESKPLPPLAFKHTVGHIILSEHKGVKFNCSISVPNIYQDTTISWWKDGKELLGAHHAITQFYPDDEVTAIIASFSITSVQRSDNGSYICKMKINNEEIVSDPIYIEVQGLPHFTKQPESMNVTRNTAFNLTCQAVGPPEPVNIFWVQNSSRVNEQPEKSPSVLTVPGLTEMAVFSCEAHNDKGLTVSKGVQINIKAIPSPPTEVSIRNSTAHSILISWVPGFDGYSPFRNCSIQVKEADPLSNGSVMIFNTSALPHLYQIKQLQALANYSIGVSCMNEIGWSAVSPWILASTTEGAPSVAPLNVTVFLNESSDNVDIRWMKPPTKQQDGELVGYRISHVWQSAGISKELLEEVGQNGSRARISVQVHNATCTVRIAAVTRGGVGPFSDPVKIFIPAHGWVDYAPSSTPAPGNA
The experiment in a line: blocking ELISA, ProS-His on MerTK-Fc, Ab 66.6 nM, isotype=100%. As to the method: Briefly, rabbit anti-human IgG antibody (Jackson ImmunoResearch, Cat #309-005-008) was coated at 2 μg/ml onto high-protein binding plates at 4° C. overnight. After washing with 0.05% Tween20 in PBS three times, 5% BSA in PBS was added for 1 hour. Recombinant human MerTK-human Fe Chimera protein (R&D systems, Cat #391-MR-100) was added at 2 μg/ml for 1 hour and plates were washed before the addition of 40 μl of anti-MerTK hybridoma supernatants and 40 μl of His tag-conjugated recombinant Gas6 (R&D systems, Cat #885-GSB-050) at 3 μg/ml or His tag-conjugated recombinant ProS (R&D systems, Cat #9489-PS-100) at 20 μg/ml. After a further incubation for 1 hour, plates were washed and incubated for 1 hour with HRP-conjugated anti-6×His tagged antibody (Abcam, Cambridge, MA, Cat #ab1187). Plates were then washed and an HRP substrate, TMB, was added to develop the plates. The reaction was stopped by adding 50 μl 2N H₂SO₄ and the OD was measured using a spectrophotometer (BioTek).
Anti-MerTK antibodies were titrated to a final concentration from 66.6 nM to 4 pM and tested against anti-human MerTK antibody M6 (disclosed in WO2016/106221) or isotype control antibody.

Residue numbers refer to the chain shown, from its start.

B1: MTK-223 (antibody, human IgG1, V domains shown)
VH: DVQLQESGPGLVKPSQSLSLTCSVTGYSITSGYYWNWIRQFPGNKLEWMGYISYDGTNNYNPSLKNRISITRDTSENQFFLKLNSVTTEDTATYFCVRGAGYWGQGTTLTVSS
VL: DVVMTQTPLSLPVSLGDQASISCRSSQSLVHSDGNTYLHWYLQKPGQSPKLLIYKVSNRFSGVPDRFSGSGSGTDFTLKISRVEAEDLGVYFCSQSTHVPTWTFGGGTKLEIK
With B1, the MFI in experiment [1] stood at 316 MFI. Further, the “Percent ProS ligand binding” value in experiment [2] was determined as 37.4%.

B2: MTK-231 (antibody, human IgG1, V domains shown)
VH: B1 VH with N58Y, N61H, E76K, K82T, Y94F, F95Y, V97T, A100G, T108S, L109V
VL: DVVMTQTPLSLPVSLGDQASISCRSSQSLVHSDGNTYLHWYLQKPGQSPKLLIYKVSNRFSGVPDRFSGSGSGTDFTLKISRLEAEDLGIYFCSQTTHIPLTFGSGTKLEIK
B2: the MFI in experiment [1] was 639 MFI. Moreover, in experiment [2], the “Percent ProS ligand binding” value came out at 152%.

B3: MTK-219 (antibody, human IgG1, V domains shown)
VH: QVQLQQSGADLMKPGASVKLSCKATGNTFTGYWIEWVKQRPGHGLEWIGEILTGSGSTNYNERFKGKATFTADTSSNTAYMQLSSLTTEDSAIYYCAGSYFTNSWFPYWGQGSLVTVSA
VL: DIVLTQSPASLAVSLGQRATISCRASESVDSYGNSFMHWYQQKPGQPPKLLIYRAYTLESGIPARFSGSGSRTDFTLTINPVEADDVATYYCQQSNEDPRTFGGGTKLEIK
B3 registered an MFI in experiment [1] of 6180 MFI. In addition, the “Percent ProS ligand binding” value in experiment [2] came to 100%.

B4: MTK-222 (antibody, human IgG1, V domains shown)
VH: B3 VH with N27Y, T58S, R63K, T74S, Y80F, F101Y, T102S
VL: B3 VL with A9V, N34S, Y56S, T57S, A84T
B4 had an MFI in experiment [1] of 3680 MFI. For the same molecule, the “Percent ProS ligand binding” value in experiment [2] turned out to be 88.2%.

B5: MTK-212 (antibody, human IgG1, V domains shown)
VH: QVQLQQSGPELVKPGASVKISCKASGYAFSSSWVNWVKQRPGKGLEWIGRIYPGDGDSNYNGNFKGKATLTADKSSNTAYLQLSSLTSEDSAVYFCARKSHFIYYTLDYWGQGTPVTVSS
VL: DIVMTQSHKFKSTSVGDRVSIACKASQDVGTSVAWYQQKPGKSPKLLIYWASSRHTGVPDRFTGSGSGTDFTLTISNVQSEDLTDYFCQQYSTYPYTFGGGTKLEIK
In experiment [1], B5 gave an MFI of 9090 MFI. Besides, the “Percent ProS ligand binding” value in experiment [2] came to 45.8%.

B6: MTK-218 (antibody, human IgG1, V domains shown)
VH: QVQLQQSGPELVKPGTSVKISCKASGYSFTSYYIHWVKQRPGQGLDWIGWIFPGNRNTQYNEKFKGKATLTADTSSSTAYMQLSSLTSEDSAVYYCARLGLIYALDYWGQGTSVTVSS
VL: DAVMTQTPLSLPVSLGDQASISCRSSQSLENSNGHTYLHWYLQKPGQSPQLLIYRVSNRFSGVQDRFSGSGSGTDFTLKISRVEAEDLGVYFCLQVTHVPFTFGSGTKLEIK
Take B6: the MFI in experiment [1] was determined as 11800 MFI. For the same molecule, the “Percent ProS ligand binding” value in experiment [2] came out at 179%.

B7: MTK-226 (antibody, human IgG1, V domains shown)
VH: B6 VH with T16A, D46E, R56G, Q59K, K63N, K65R
VL: B6 VL with N31S, H35N, Q64L, K79Q
On to B7, for which the MFI in experiment [1] is 10400 MFI. The “Percent ProS ligand binding” value in experiment [2] was determined as 175%.

B8: MTK-211 (antibody, human IgG1, V domains shown)
VH: QVQLQQSGAELMKPGASVKLSCKATGYTFTGYWIEWVKQRPGHGLEWIGEILPGSGGSNYNEKFKGKATFTADTSSNTAYIQLSSLTTEDSAIYCCARGEPSYFSDAGFAYWGQGTLVTVSA
VL: QIVLTQSPAVMSASPGEKVTMTCSASSSITYMHWYQQKPGTSPKRWIYDTSKLASGVPARFSGSGSGTSYFLTISSMEAEDVATYYCHQRSTYPYTFGGGTKLEIM
B8 came in with an MFI in experiment [1] of 4490 MFI. In addition, in experiment [2], the “Percent ProS ligand binding” value turned out to be 106%.

B9: MTK-206 (antibody, human IgG1, V domains shown)
VH: QVQLQQSGAELARPGASVKMSCKASGYTFTSYTMHWVKQRPGQGLEWIGYINPSSGYIKNSQKFKDKATLTADKSSSTAYMQLSSLTSEDSAVYYCARTVYGYYGSSPDYWGQGTTLTVSS
VL: DIQMTQSPSSLSASLGERVSLTCRASQDIGSNLNWLQQEPDGTIKRLIYATSSLESGVPKRFSGSRSGSDYSLTISSLESEDFVDYYCLQYDSSPWTFGGGTKLEIK
In experiment [1], B9 returned an MFI of 431 MFI. The “Percent ProS ligand binding” value in experiment [2] was determined as 132%.

B10: MTK-229 (antibody, human IgG1, V domains shown)
VH: QVQLQQSGPELVKPGASVKISCKASGYEFSRSWMNWVKQRPGKGLEWIGRIYPGDGDTNYKGKLKGQATLTADKSSSTAYMQLSSLTFEDSAVYFCARGGGYYYDSRYEGFVYWGQGTVVTVSA
VL: QIVLTQSPAIMSASPGEEVTMTCSASSSVSYMHWYQQKSGTSPKRWIYDTSKLASGVSGRFSGSGSGTSYSLTISSMEAEDAATYYCQQWSSNPPITFGAGTKLELK
On to B10, for which, in experiment [1], the MFI was 2870 MFI. Also, the “Percent ProS ligand binding” value in experiment [2] came to 117%.

B11: MTK-213 (antibody, human IgG1, V domains shown)
VH: QVQLQQPGAELVKPGASVKMSCKASGYTFTSYWITWVKQRPGQGHEWIGEIYPGIGSTNYNEKFKSKATLTVDTSSRTAYMQLSSLTSEDSAVYFCARGAYTKYYFDYWGQGTTLTVSS
VL: DIVMTQSHKFMSTSVGDRVSITCKASQDVGDAVAWYQQKPGQTPKLLIYWASTRHTGVPDRFTGSGSGTDFTLTISNVQSEDLADYFCQQYSSYLMYTFGGGTKLEIK
For the molecule B11, the MFI in experiment [1] worked out at 8450 MFI. The “Percent ProS ligand binding” value in experiment [2] is 43.2%.

B12: MTK-220 (antibody, V domains shown)
VH: EVQLVESGGGLVKPGGSLKLSCAASGFTFSDYGMHWVRQAPEKGLEWVAFISGGSGTIYYEDTVKGRFTISRDNAKNTLFLQMTSLRSEDTAMYYCTRGGNYFDYWGQGTTLTVSS
VL: NIMLTQSPSSLAVSAGEKVTMTCKSSQSVLYSSNQKNYLAWYQQKPGQSPKLLIYWASTRESGVPDRFTGSGSGTDFTLTISNVQAEDLAVYYCHQYFSSWTFGGGTKLEIK
In experiment [1], B12 registered an MFI of 757 MFI. Moreover, in experiment [2], the “Percent ProS ligand binding” value was determined as 63.4%.

B13: MTK-202 (antibody, human IgG1, V domains shown)
VH: EVQLVESGGGLVKPGGSLKLSCAASGFTFSDFGMHWVRQVPEKGLEWVAFISGGSNTIYYTDTVKGRFTISRDNAKNTLFLQMTSLRSEDTAMYYCVRNGNSFAYWGQGTLVTVSA
VL: B12 VL with L4M, T22N, V84I, V91I, S99F
B13: the MFI in experiment [1] is 4510 MFI. Further, the “Percent ProS ligand binding” value in experiment [2] stood at 53.4%.

B14: MTK-204 (antibody, human IgG1, V domains shown)
VH: B12 VH with F50Y, G53S, S55T, G56S, T97A, N101L, Y102L
VL: B12 VL with L4M, T22S, Y55Q, G74E, S82R, N83S
B14 returned an MFI in experiment [1] of 602 MFI. In experiment [2], the “Percent ProS ligand binding” value is 101%.
